Blank lines part the entries; values can stand above or below the binder they belong to.
Target: T1, polyclonal human IgE (human)
T1 construct: Used at 10 nM to sensitise Hoxb8 mast cells overnight; also called surface IgE on Hoxb8 mast cells
T1 constant: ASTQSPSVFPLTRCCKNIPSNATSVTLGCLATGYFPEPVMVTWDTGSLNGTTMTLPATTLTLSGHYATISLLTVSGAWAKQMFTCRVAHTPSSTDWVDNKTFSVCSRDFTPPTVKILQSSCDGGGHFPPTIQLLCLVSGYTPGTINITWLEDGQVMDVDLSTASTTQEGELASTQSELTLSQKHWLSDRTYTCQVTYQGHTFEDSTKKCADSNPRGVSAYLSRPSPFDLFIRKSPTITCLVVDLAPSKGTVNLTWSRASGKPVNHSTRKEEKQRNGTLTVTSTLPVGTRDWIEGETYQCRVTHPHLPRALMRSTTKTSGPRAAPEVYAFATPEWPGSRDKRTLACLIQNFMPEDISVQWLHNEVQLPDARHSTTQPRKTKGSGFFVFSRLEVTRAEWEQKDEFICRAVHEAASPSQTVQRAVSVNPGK
Experiment: flow cytometry of surface IgE on Hoxb8 mast cells with human FcεRI, 20 h; dissociation of IgE from FcεRI

IC50: 1.07 µM
B1: C5 (antibody, human IgG1, kappa)
heavy: not shown
light: DIQLTQSPSSLSASVGDRVTITCRASKSVDADGDSYMNWYQAKPGRHPKLLIYAASYLESGVPSRFSGSGSGTDFTLTISSLQPEDFATYYCQQSHEDPYTFGQGTKVEIKGRTVAAPSVFIFPPSDEQLKSGTASVVCLLNNFYPREAKVQWKVDNALQSGNSQESVTEQDSKDSTYSLSSTLTLSKADYEKHKVYACEVTHQGLSSPVTKSFNRGEC
notes: Whole IgG, comparator; also called Comparator 5; Comparator_5

IC50: 2.01 µM
B2: C6 (antibody, human IgG1, kappa)
heavy: not shown
light: DIQLTQSPSSLSASVGDRVTITCRASKSVDADGDSYMNWYQAKPGRHPKLLIYAASYLESGVPSRFSGSGSGTDFTLTISSLQPEDFATYYCQQSHEDPYTFGQGTKVEIKRTVAAPSVFIFPPSDEQLKSGTASVVCLLNNFYPREAKVQWKVDNALQSGNSQESVTEQDSKDSTYSLSSTLTLSKADYEKHKVYACEVTHQGLSSPVTKSFNRGEC
notes: Whole IgG, comparator; also called Comparator 6; Comparator_6

IC50: 0.815 µM
B3: C4 (antibody, human IgG1, kappa)
heavy: not shown
light: DIQLTQSPSSLSASVGDRVTITCRASKSVDADGDSYMNWYQAKPGRHPKLLIYAASYLESGVPSRFSGSGSGTDFTLTISSLQPEDFATYYCQQSHEDPYTFGQGTKVEIKGGRTVAAPSVFIFPPSDEQLKSGTASVVCLLNNFYPREAKVQWKVDNALQSGNSQESVTEQDSKDSTYSLSSTLTLSKADYEKHKVYACEVTHQGLSSPVTKSFNRGEC
notes: Whole IgG, comparator; also called Comparator 4; Comparator_4
